From patent publication US20250057930A1, “ANAPLASTIC LYMPHOMA KINASE (ALK) CANCER VACCINES AND METHODS OF USE THEREOF” (The Children's Medical Center Corporation, priority 2022, published 2025) come the findings set out here.

For this experiment, the system named is H2-Dd expression. Briefly: H2-Dd surface expression on MHC-I^low lung tumor escaper cell lines (flow cytometry). The format is cell-based, mouse. As to conditions: tumor cells stimulated in vitro with IFN-γ. As to the method:
To uncover the mechanisms that would explain this resistance to treatment, ex vivo escaped tumors were isolated from each treatment group. […] To understand whether the observed H2-Dd downregulation was sufficient to impair tumor rejection, tumor cells with high H2-Dd isolated from untreated mice or tumor cells with low H2-Dd isolated from ALK vaccinated mice and treated with ICI were injected. Treatment with ICI induced rejection of tumors with high H2-Dd expression (FIGS. 6D-6E), consistent with previous experiments (FIG. 3E), but not of escaped tumors with low H2-Dd expression (FIGS. 6F-6G). Finally, it was asked whether H2-Dd expression could be restored by Stimulator of IFN genes (STING) signaling that can increase MHC-I expression in other models of lung cancer.
Allophycocyanin (APC)-conjugates H-2D^d-[…] (SEQ ID NO: 22) Dextramer reagents were obtained from Immudex (Immudex, Denmark). […] After washing step, cells were ready to be acquired. When referred, also PD-1 (clone RMP1-30; BV421-PD-1, BD Pharmingen™, USA) expression was evaluated together with dextramer staining, being added together with FITC-CD8. H2-Dd MHC-I expression was measured on relapsed tumors after treatment. […] All cells were acquired in a BD Celesta flow cytometer (BD Bioscience, USA) and analyzed by using the FlowJo software (FlowJo LCC, USA). […]

B1: IFN-γ: Recombinant murine IFN-γ (R&D Systems) (protein, UniProt P01580 23-155, looked up)
Interferon gamma: HGTVIESLESLNNYFNSSGIDVEEKSLFLDIWRNWQKDGDMKILQSQIISFYLRLFEVLKDNQAISNNISVIESHLITTFFSNSKAKKDAFMSIAKFEVNNPQVQRQAFNELIRVVHQLLPESSLRKRKRSRC
In the case of B1, the H2-Dd expression entry was “H2-Dd expression was restored”.
